In patent US20240116985A1 (published 2024):
One block for each binder: values may come before it. Starred links: 1 amine or outer side, 2 acyl side, 3 side chain; linkers in the order of their positions; H or OH if unused. Positions of bridges follow the written chain, without caps; N, C: chain ends. Non-standard residues stand in square brackets, D forms with d. Primed or numbered codes have the meaning given here. (CCpCO2H)TriAzDap = (S)-1-(1-(2-amino-2-carboxyethyl)-1H-1,2,3-triazol-4-yl)cyclopropane-1-carboxylic acid, O=C([C@H](Cn1cc(C2(C(=O)[*:3])CC2)nn1)N[*:1])[*:2]; B5(10) = 2-amino-2-(pent-4-en-1-yl)hept-6-enoic acid, bis(4-pentenyl)glycine, stitching residue bearing both staples, C=CCCCC(CCCC=C)(N[*:1])C(=O)[*:2]; PyrS2″ = (S)-3-amino-1-((pent-4-en-1-yloxy)carbonyl)pyrrolidine-3-carboxylic acid (stapling residue), C=CCCCOC(=O)N1CC[C@@](N[*:1])(C(=O)[*:2])C1; B5(16) = 2-amino-2-(pent-4-en-1-yl)hept-6-enoic acid = 2,2-bis(4-pentenyl)glycine (stitching residue), C=CCCCC(CCCC=C)(N[*:1])C(=O)[*:2]; B5(24) = 2-amino-2-(pent-4-en-1-yl)hept-6-enoic acid, 2,2-bis(4-pentenyl)glycine (stitching residue), C=CCCCC(CCCC=C)(N[*:1])C(=O)[*:2]; B5(5) = 2,2-bis(4-pentenyl)glycine, 2-amino-2-(pent-4-en-1-yl)hept-6-enoic acid (stitching residue), C=CCCCC(CCCC=C)(N[*:1])C(=O)[*:2]; B5(6) = 2-amino-2-(pent-4-en-1-yl)hept-6-enoic acid (bis(4-pentenyl)glycine), stitching residue, C=CCCCC(CCCC=C)(N[*:1])C(=O)[*:2]; PyrS2 = (S)-3-amino-1-((pent-4-en-1-yloxy)carbonyl)pyrrolidine-3-carboxylic acid, C=CCCCOC(=O)N1CC[C@@](N[*:1])(C(=O)[*:2])C1; Phe(2-Cl) = N[C@@H](Cc1ccccc1Cl)C(=O)O; Phe(2-OMe) = COc1ccccc1C[C@H](N)C(=O)O; Bta = N[C@@H](Cc1csc2ccccc12)C(=O)O; αAllylPro = C=CC[C@@]1(C(=O)O)CCCN1; tBuAla = CC(C)(C)C[C@H](N)C(=O)O; 3Thi = N[C@@H](Cc1ccsc1)C(=O)O; Cha = N[C@@H](CC1CCCCC1)C(=O)O; S8 = C=CCCCCCC[C@](C)(N)C(=O)O

How the values were obtained:
[1] = biological target: B-cat-Halo (UniProt P35222 1-781); experiment: cell-based or functional assay
[2] = biological target: T1, B-cat-Halo (beta-catenin HaloTag fusion expressed in HEK293 cells) (UniProt P35222 1-781); experiment: cell-based or functional assay
T1 sequence (looked up): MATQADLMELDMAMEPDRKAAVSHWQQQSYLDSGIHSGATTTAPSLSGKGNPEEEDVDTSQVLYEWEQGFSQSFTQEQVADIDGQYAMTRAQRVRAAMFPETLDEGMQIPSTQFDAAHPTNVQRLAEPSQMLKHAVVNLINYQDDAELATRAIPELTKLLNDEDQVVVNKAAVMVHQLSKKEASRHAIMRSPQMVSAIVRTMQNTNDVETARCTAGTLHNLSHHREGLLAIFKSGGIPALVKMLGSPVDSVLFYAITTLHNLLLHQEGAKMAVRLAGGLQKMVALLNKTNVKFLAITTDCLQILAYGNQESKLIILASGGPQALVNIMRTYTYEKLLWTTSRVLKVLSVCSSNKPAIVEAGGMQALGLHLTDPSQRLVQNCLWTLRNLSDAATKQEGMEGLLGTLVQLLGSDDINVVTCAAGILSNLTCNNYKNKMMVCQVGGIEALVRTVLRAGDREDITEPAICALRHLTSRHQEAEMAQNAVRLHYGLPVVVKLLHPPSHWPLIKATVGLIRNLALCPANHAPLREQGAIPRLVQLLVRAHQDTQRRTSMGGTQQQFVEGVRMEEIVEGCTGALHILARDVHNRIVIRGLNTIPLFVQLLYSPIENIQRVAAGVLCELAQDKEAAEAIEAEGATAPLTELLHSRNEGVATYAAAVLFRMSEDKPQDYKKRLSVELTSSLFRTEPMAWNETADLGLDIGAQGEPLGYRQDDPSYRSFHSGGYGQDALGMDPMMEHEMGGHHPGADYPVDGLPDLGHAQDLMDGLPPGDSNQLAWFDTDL

[3] = biological target: T2, B-cat-Halo (UniProt P35222 1-781); experiment: cell-based or functional assay; remark: listed apart in the source
T2 sequence (looked up): T1 sequence (looked up)

[4] = biological target: T3, full-length beta-Catenin (Uniprot ID P35222) (Homo sapiens (Human), UniProt P35222 2-781); experiment: AlphaScreen competition; peptide titrated against full-length beta-catenin + biotin-TCF4(10-53)
T3 construct: The assay protocols say only 'full-length'; No tag is stated, although the AlphaScreen kit is a Histidine (Nickel Chelate) kit; also called B-Catenin; bCat
T3 sequence: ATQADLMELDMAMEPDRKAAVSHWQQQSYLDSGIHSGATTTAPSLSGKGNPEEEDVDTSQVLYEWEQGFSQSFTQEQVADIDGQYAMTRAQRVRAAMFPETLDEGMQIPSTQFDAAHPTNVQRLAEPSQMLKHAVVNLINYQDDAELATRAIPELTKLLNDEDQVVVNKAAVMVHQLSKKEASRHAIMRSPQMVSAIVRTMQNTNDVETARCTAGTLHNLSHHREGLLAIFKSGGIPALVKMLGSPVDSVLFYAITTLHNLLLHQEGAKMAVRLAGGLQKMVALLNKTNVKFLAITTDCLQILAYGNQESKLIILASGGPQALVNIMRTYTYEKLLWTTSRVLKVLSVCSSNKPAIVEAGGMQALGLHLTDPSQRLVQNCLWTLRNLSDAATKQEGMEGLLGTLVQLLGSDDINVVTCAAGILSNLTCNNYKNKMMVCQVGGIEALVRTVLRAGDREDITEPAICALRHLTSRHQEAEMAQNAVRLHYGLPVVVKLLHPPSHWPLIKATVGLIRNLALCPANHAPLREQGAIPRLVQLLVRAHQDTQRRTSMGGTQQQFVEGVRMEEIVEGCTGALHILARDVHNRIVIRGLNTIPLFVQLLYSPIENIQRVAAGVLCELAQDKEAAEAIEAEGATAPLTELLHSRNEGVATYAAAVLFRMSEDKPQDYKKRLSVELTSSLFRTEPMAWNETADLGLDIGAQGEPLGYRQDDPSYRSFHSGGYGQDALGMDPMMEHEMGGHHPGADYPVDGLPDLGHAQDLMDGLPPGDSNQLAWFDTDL
Protocol: Equal volume of the titrated peptide was added to the plate and incubated for 15 minutes at 20° C. Then 4 uL of donor and 4 uL acceptor beads at 10 ug/mL were added to the plate, for a 16 uL reaction pool and protected from light for 60 minutes at 20° C. prior to read. Reads were performed on a CLARIOstar plate reader (BMG Labtech) in duplicate, and data were fitted to a 1:1 binding model with hill slope using an in-house script. All provided concentrations are final concentrations.

[5] = biological target: T3, full-length beta-Catenin (Uniprot ID …); experiment: fluorescence polarization competition; peptide titrated against full-length beta-catenin + 5FAM-TCF4(10-53) probe
Protocol: (§1) The plate was incubated protected from light for 60 minutes at 20° C. prior to read. Reads were performed on a CLARIOstar plate reader (BMG Labtech) in duplicate, and data were fitted to a 1:1 binding model with hill slope using an in-house script. All provided concentrations are final concentrations.

[6] = biological target: T4, B-cat-Halo (UniProt P35222 1-781); experiment: cell-based or functional assay; remark: listed apart in the source
T4 sequence (looked up): T1 sequence (looked up)

[7] = biological target: T5, full-length beta-Catenin (Uniprot ID P35222) (Homo sapiens (Human), UniProt P35222 1-781); experiment: fluorescence polarization competition; peptide titrated against 10 nM full-length beta-catenin + 10 nM 5FAM-TCF4(10-53) probe
T5 construct: The assay text says 'full-length'; also called bCat; B-Catenin
T5 sequence: T1 sequence (looked up)
Procedure, shortened: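 Fluorescence polarization was read in duplicate after the plate sat 60 minutes at 20° C. shielded from light. Values come from fitting to a 1:1 binding model with hill slope.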

[8] = biological target: T6, full-length beta-Catenin (Uniprot ID P35222) (Homo sapiens (Human), UniProt P35222 2-781); experiment: fluorescence polarization competition; full-length beta-catenin + 5FAM-TCF4 10-53 probe
T6 construct: The FP protocol says 'full-length beta-Catenin (Uniprot ID P35222)'; also called bCat; B-Catenin
T6 sequence: T3 sequence
Protocol: as §1

[9] = biological target: T7, beta-catenin in DLD1 TCF/LEF luciferase reporter cells (UniProt P35222 1-781); experiment: cell-based or functional assay
T7 sequence (looked up): T1 sequence (looked up)

[10] = biological target: B-cat-Halo (beta-catenin HaloTag construct expressed in HEK293 cells) (UniProt P35222 1-781); experiment: cell-based or functional assay
[11] = biological target: T8, B-cat-Halo (NanoBRET construct expressed in HEK293 cells) (UniProt P35222 1-781); experiment: cell-based or functional assay
T8 sequence (looked up): T1 sequence (looked up)

[12] = biological target: T9, beta-catenin in DLD1 TCF/LEF luciferase reporter cells (UniProt P35222 1-781); experiment: cell-based or functional assay; remark: listed apart in the source
T9 sequence (looked up): T1 sequence (looked up)

[13] = biological target: T10, full-length beta-Catenin (Uniprot ID P35222) (Homo sapiens (Human), UniProt P35222 1-781); experiment: FP competition: full-length beta-catenin 10 nM + 5FAM-TCF4(10-53) 10 nM
T10 construct: also called bCat; B-Catenin
T10 sequence: T1 sequence (looked up)
Protocol: as §1

[14] = biological target: T11, B-cat-Halo (beta-catenin HaloTag fusion expressed in HEK293 cells) (Homo sapiens (Human), UniProt P35222 1-781); experiment: cell-based or functional assay
T11 sequence: T1 sequence (looked up)

[15] = biological target: T12, beta-catenin in DLD1 TCF/LEF luciferase reporter cells (UniProt P35222 1-781); experiment: cell-based or functional assay; remark: listed apart in the source
T12 sequence (looked up): T1 sequence (looked up)

Binder: Ac-[αAllylPro]D[tBuAla][B5(5)]DDAAFN[S8][3Thi][Bta]Q-NH2 (staple 1-4, 4-11) [I-679]
NanoBRET % inh @ 10 uM [1]: 44.8%

B1: I-357 (peptide)
peptide: XDAXDDAAFVXFAQ
modifications: not fully specified; N-terminal Ac; C-terminal NH2; PL3 at 1, B5 at 4, S8 at 11 (stapled 1-4 and 4-11)
notes: Stapled peptide composition; Earlier-eluting isomer composition; also called Ac-PL3-Asp-Ala-B5-Asp-Asp-Ala-Ala-Phe-Val-S8-Phe-Ala-Gln-NH2
NanoBRET % inh @ 10 uM [3]: -5.3%
EC50 [4]: 10 µM
EC50 [5]: 5 µM

Binder: Ac-[αAllylPro]DA[B5(24)]DEAAFN[S8][Phe(2-OMe)][Bta]Q-NH2 (staple 1-4, 4-11, Stapled peptide composition) [I-437]
NanoBRET Abs IC50 [6]: 17.5 µM
IC50 [7]: 0.026 µM

Binder: Ac-[αAllylPro]DL[B5(6)]DEAAFQ[S8]F[Bta]Q-NH2 (staple 1-4, 4-11, Stapled peptide composition) [I-505]
NanoBRET Abs IC50 [11]: 4.9 µM
DLD1 4% Abs IC50 [12]: 9.4 µM
IC50 [13]: 0.023 µM

B4: I-2445 (peptide)
peptide: Ac-[αAllylPro]D[tBuAla][B5(5)]D[(CCpCO2H)TriAzDap]AAFL[PyrS2″][3Thi][Bta]Q-NH2
modifications: staple 1-4, 4-11; not fully specified; printed as Ac-PL3-Asp-Npg-B5-Asp-[CCpCO2H]TriAzDap-Ala-Ala-Phe-Leu-PyrS2-3Thi-BztA-Gln-NH2
NanoBRET Abs IC50 [14]: 17.1 µM
DLD1 4% Abs IC50 [15]: 9.5 µM

The remaining lines, values ahead:

NanoBRET IC50 [2]: 5.8 µM
Binder: Ac-[αAllylPro]D[Cha][B5(16)]DEAAFN[S8]F[Bta]Q-NH2 (staple 1-4, 4-11; also: later-eluting staple isomer composition) [I-620]

IC50 [8]: 3.79 µM
B2: I-1296 (peptide)
peptide: Ac-[αAllylPro]DA[B5(10)]NTAAFL[PyrS2]F[Bta]Q-NH2
modifications: staple 1-4, 4-11; not fully specified; printed as Ac-PL3-Asp-Ala-B5-Asn-Thr-Ala-Ala-Phe-Leu-PyrS2-Phe-BztA-Gln-NH2
notes: later eluting HPLC peak (staple isomer composition); also called Ac-PL3-Asp-Ala-B5-Asn-Thr-Ala-Ala-Phe-Leu-PyrS2-Phe-BztA-Gln-NH2

DLD1 4% Abs IC50 [9]: 7.8 µM
NanoBRET Abs IC50 [10]: 9.6 µM
B3: I-1019: Ac-PL3-Asp-Npg-B5-Asp-Asp-Ala-Ala-Phe-Ser-PyrS2-2C1F-BztA-Ser-NH2 (peptide)
peptide: Ac-[αAllylPro]D[tBuAla][B5(16)]DDAAFS[PyrS2″][Phe(2-Cl)][Bta]S-NH2
modifications: staple 1-4, 4-11; not fully specified; printed as Ac-PL3-Asp-Npg-B5-Asp-Asp-Ala-Ala-Phe-Ser-PyrS2-2C1F-BztA-Ser-NH2
